# Assay results reported in PMC9593060.
# Molecular target: T1, YycF (Staphylococcus aureus (ATCC29213?)) (UniProt Q9RDT5)
# T1 sequence: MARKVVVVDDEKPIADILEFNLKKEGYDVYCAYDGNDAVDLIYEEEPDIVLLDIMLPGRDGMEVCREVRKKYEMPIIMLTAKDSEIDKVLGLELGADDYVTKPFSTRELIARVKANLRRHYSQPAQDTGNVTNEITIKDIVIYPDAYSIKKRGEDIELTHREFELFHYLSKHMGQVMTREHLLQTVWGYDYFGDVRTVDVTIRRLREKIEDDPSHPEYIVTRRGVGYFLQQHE
# Assay: EMSA
# Details: binding buffer not stated
sequence,measurement,value
TGTGAAATATCAATTTGATTGAAAATTAGACAAAAATAAAGAAATGACTTCAACATAATCATCAAAGTCATTTCGTTGAGTTGACTACTGCCAAGATAACATCGTCACGACTAGGACATTGAATTATGTCCCAGACTCATCGACT (double strand) [PcodY (codY promoter region)],binding,binds
